Laboratory results published in publication PMC3182529.

Biological target: 14-3-3ζ (UniProt P63104)
Assay: fluorescence polarisation

Chain of 14-3-3ζ (P63104 whole entry): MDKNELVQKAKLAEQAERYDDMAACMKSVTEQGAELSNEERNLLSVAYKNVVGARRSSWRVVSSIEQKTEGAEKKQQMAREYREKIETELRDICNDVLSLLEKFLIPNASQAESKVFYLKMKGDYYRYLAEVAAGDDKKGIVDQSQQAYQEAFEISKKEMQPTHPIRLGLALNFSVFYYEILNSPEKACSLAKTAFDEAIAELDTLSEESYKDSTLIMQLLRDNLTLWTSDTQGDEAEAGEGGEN

Row | Kd [µM] | Substance
1 | 162 | H3S28phP30A (25–38) (from UniProt P68431 26-39) (peptide)
2 | 34.9 | H3K27acS28ph (25–38) (from UniProt P68431 26-39) (peptide)
3 | 18.7 | H3S28ph (25–38) (from UniProt P68431 26-39) (peptide)
